Residue numbers refer to the chain shown, from its start. Values belong to the binder of their own block, whether it stands above or below them.
Key:
[1] = target: M44-modified P NTAA target peptides; test: encoding assay; P2 I;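 also: fraction of recording tags encoded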
[2] = target: M44-modified Y NTAA target peptides (M44-Y-P2-peptide); test: encoding assay; P2 T;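 also: fraction of recording tags encoded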
[3] = target: M44-modified M NTAA target peptides; test: encoding assay; P2 T
[4] = target: M44-modified Q NTAA target peptides; test: encoding assay; P2 T
[5] = target: M44-modified T NTAA target peptides; test: encoding assay; P2 T
[6] = target: M44-modified L NTAA target peptides (M44-L-P2-peptide); test: encoding assay; P2 T;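 also: fraction of recording tags encoded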
[7] = target: M44-modified G NTAA target peptides (M44-G-P2-peptide); test: encoding assay; P2 T;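 also: fraction of recording tags encoded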
[8] = target: M44-modified I NTAA target peptides (M44-I-P2-peptide); test: encoding assay; P2 T
[9] = target: M44-modified P NTAA target peptides; test: encoding assay; P2 T;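 also: fraction of recording tags encoded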
[10] = target: M44-modified V NTAA target peptides; test: encoding assay; P2 T;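 also: fraction of recording tags encoded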
[11] = target: M44-modified F NTAA target peptides (M44-F-P2-peptide); test: encoding assay; P2 T;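 also: fraction of recording tags encoded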
[12] = target: M44-modified E NTAA target peptides; test: encoding assay; P2 T;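 also: fraction of recording tags encoded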
[13] = target: M44-modified A NTAA target peptides (M44-A-P2-peptide); test: encoding assay; P2 T
[14] = target: M44-modified Y NTAA target peptides (M44-Y-P2-peptide); test: encoding assay; P2 Q;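 also: fraction of recording tags encoded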
[15] = target: M44-modified T NTAA target peptides; test: encoding assay; P2 Q;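 also: fraction of recording tags encoded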
[16] = target: M44-modified Y NTAA target peptides (M44-Y-P2-peptide); test: encoding assay; P2 N;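 also: fraction of recording tags encoded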
[17] = target: M44-modified D NTAA target peptides; test: encoding assay; P2 N;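 also: fraction of recording tags encoded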
[18] = target: M44-modified M NTAA target peptides; test: encoding assay; P2 N
[19] = target: M44-modified Q NTAA target peptides; test: encoding assay; P2 N
[20] = target: M44-modified S NTAA target peptides; test: encoding assay; P2 N
[21] = target: M44-modified H NTAA target peptides; test: encoding assay; P2 N
[22] = target: M44-modified L NTAA target peptides (M44-L-P2-peptide); test: encoding assay; P2 N;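 also: fraction of recording tags encoded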
[23] = target: M44-modified N NTAA target peptides; test: encoding assay; P2 N
[24] = target: M44-modified I NTAA target peptides (M44-I-P2-peptide); test: encoding assay; P2 N
[25] = target: M44-modified V NTAA target peptides; test: encoding assay; P2 N;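 also: fraction of recording tags encoded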
[26] = target: M44-modified F NTAA target peptides (M44-F-P2-peptide); test: encoding assay; P2 N;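 also: fraction of recording tags encoded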
[27] = target: M44-modified E NTAA target peptides; test: encoding assay; P2 N;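 also: fraction of recording tags encoded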
[28] = target: M44-modified W NTAA target peptides; test: encoding assay; P2 N;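 also: fraction of recording tags encoded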
[29] = target: M17-modified M NTAA target peptides; test: encoding assay; P2 I;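 also: fraction of recording tags encoded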
[30] = target: M17-modified I NTAA target peptides; test: encoding assay; P2 I;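 also: fraction of recording tags encoded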
[31] = target: M17-modified S NTAA target peptides; test: encoding assay; P2 I;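 also: fraction of recording tags encoded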
[32] = target: M17-modified W NTAA target peptides; test: encoding assay; P2 I;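 also: fraction of recording tags encoded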
[33] = target: M17-modified P NTAA target peptides; test: encoding assay; P2 I;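 also: fraction of recording tags encoded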
[34] = target: M17-modified Y NTAA target peptides (M17-Y-P2-peptide); test: encoding assay; P2 I;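 also: fraction of recording tags encoded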
[35] = target: M17-modified A NTAA target peptides; test: encoding assay; P2 I;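 also: fraction of recording tags encoded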
[36] = target: M17-modified T NTAA target peptides; test: encoding assay; P2 I;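 also: fraction of recording tags encoded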
[37] = target: M17-modified G NTAA target peptides; test: encoding assay; P2 I;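 also: fraction of recording tags encoded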
[38] = target: M17-modified E NTAA target peptides; test: encoding assay; P2 I;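 also: fraction of recording tags encoded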
[39] = target: M17-modified L NTAA target peptides; test: encoding assay; P2 I;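 also: fraction of recording tags encoded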
[40] = target: M17-modified Q NTAA target peptides; test: encoding assay; P2 I;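 also: fraction of recording tags encoded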
[41] = target: M17-modified V NTAA target peptides; test: encoding assay; P2 I;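 also: fraction of recording tags encoded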
[42] = target: M17-modified H NTAA target peptides; test: encoding assay; P2 I;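 also: fraction of recording tags encoded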
[43] = target: M17-modified D NTAA target peptides; test: encoding assay; P2 I;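 also: fraction of recording tags encoded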
[44] = target: M17-modified N NTAA target peptides; test: encoding assay; P2 I;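 also: fraction of recording tags encoded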
[45] = target: M17-modified F NTAA target peptides; test: encoding assay; P2 I;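 also: fraction of recording tags encoded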
[46] = target: M17-modified S NTAA target peptides; test: encoding assay; P2 Q;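 also: fraction of recording tags encoded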
[47] = target: M17-modified P NTAA target peptides; test: encoding assay; P2 Q;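 also: fraction of recording tags encoded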
[48] = target: M17-modified A NTAA target peptides; test: encoding assay; P2 Q;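 also: fraction of recording tags encoded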
[49] = target: M17-modified E NTAA target peptides; test: encoding assay; P2 Q;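 also: fraction of recording tags encoded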
[50] = target: M17-modified L NTAA target peptides; test: encoding assay; P2 Q;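 also: fraction of recording tags encoded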
[51] = target: M17-modified Q NTAA target peptides; test: encoding assay; P2 Q;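 also: fraction of recording tags encoded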
[52] = target: M17-modified N NTAA target peptides; test: encoding assay; P2 Q;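 also: fraction of recording tags encoded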

encoding yield [29]: 0.01 | encoding yield [30]: 0.05 | encoding yield [31]: 0.01 | encoding yield [32]: 0.02 | encoding yield [33]: 0.01 | encoding yield [34]: 0.17 | encoding yield [35]: 0.02 | encoding yield [36]: 0.01 | encoding yield [37]: 0.01 | encoding yield [38]: 0.03 | encoding yield [39]: 0.02 | encoding yield [40]: 0.02 | encoding yield [41]: 0.03 | encoding yield [42]: 0.04 | encoding yield [43]: 0.02 | encoding yield [44]: 0.03 | encoding yield [45]: 0.03 | encoding yield [46]: 0.03 | encoding yield [47]: 0.01 | encoding yield [48]: 0.03 | encoding yield [49]: 0.02 | encoding yield [50]: 0.03 | encoding yield [51]: 0.01 | encoding yield [52]: 0.03
B2: engineered M17-Y binder (SEQ ID NO: 61) (designed binder, not shown: small tags and cut ends; large carriers)
chain: TVPDRSEIAGKWYVVALASNTEFYLREKDWVKSAMARISFLGEDELKVSSAVPSPNGCYKVERTWKKTSDDGEVYNSRAAKLKVEVLDTDYKSYAVIYATRVKDGRTDHQMILYSRSPEVSPAATAIFRKLAGERNYTDEMVAMLPRQEECTVDEV

encoding yield [2]: 0.02 | encoding yield [3]: 0 | encoding yield [4]: 0.01 | encoding yield [5]: 0.01 | encoding yield [6]: 0.1 | encoding yield [7]: 0.01 | encoding yield [8]: 0.14 | encoding yield [9]: 0.01 | encoding yield [10]: 0.02 | encoding yield [11]: 0.02 | encoding yield [12]: 0.01 | encoding yield [13]: 0.01 | encoding yield [16]: 0.01 | encoding yield [17]: 0.01 | encoding yield [18]: 0.02 | encoding yield [19]: 0.01 | encoding yield [20]: 0.01 | encoding yield [21]: 0.01 | encoding yield [22]: 0.16 | encoding yield [23]: 0.01 | encoding yield [24]: 0.09 | encoding yield [25]: 0.03 | encoding yield [26]: 0 | encoding yield [27]: 0.01 | encoding yield [28]: 0.01
B4: engineered M44-L binder (SEQ ID NO: 21) (designed binder, not shown: small tags and cut ends; large carriers)
chain: QVSVQPNFQQDKFLGRWFYAGHASNSSWYREKVAALSMAKLVVAPATDGGLNATETFLRKNQCETITSLLQPAGSLGSYSSRSPHGGSTWSTSVVETDYDQYALLYLQGSKGPGEDFRGAILASRTQTPRAELKEKFTAFSKAQGFTEDTIVFLPQTDKCMTEQ

The next lines start with the binder.

B1: engineered M44-L binder (SEQ ID NO: 31) (designed binder, not shown: small tags and cut ends; large carriers)
chain: QDSTQNLIPAPPLISVPLQPGFWTERFQGRWFLVGFAGNAVQKERQSRLTMQSLILELQEDNSYNITAINVRGQGCRYIISTLVPSSRPGQFTLGNIHSYPQIQSLDVQVADTDYDQFAMVFLQGTSENKQYFEVALAGRTKGLSDELKERFVSFAKSLGLKDNNIVFSVPTDQCIDN
encoding yield [1]: 0.01 | encoding yield [2]: 0.07 | encoding yield [3]: 0.01 | encoding yield [4]: 0.02 | encoding yield [5]: 0.04 | encoding yield [6]: 0.15 | encoding yield [7]: 0.04 | encoding yield [8]: 0.07 | encoding yield [9]: 0.02 | encoding yield [10]: 0.04 | encoding yield [11]: 0.05 | encoding yield [12]: 0.01 | encoding yield [13]: 0.03 | encoding yield [14]: 0.03 | encoding yield [15]: 0.02 | encoding yield [16]: 0.05 | encoding yield [17]: 0.01 | encoding yield [18]: 0.02 | encoding yield [19]: 0.02 | encoding yield [20]: 0.03 | encoding yield [21]: 0.03 | encoding yield [22]: 0.14 | encoding yield [23]: 0.03 | encoding yield [24]: 0.03 | encoding yield [25]: 0.04 | encoding yield [26]: 0.01 | encoding yield [27]: 0.02 | encoding yield [28]: 0.01

B3: upgraded binder after additional maturation round (SEQ ID NO: 62) (designed binder, not shown: small tags and cut ends; large carriers)
chain: B2 chain with E27G, W30R, A36V, L41Q, G105R, E119D
encoding yield [29]: 0.02 | encoding yield [30]: 0.08 | encoding yield [31]: 0.02 | encoding yield [32]: 0.04 | encoding yield [33]: 0.01 | encoding yield [34]: 0.31 | encoding yield [35]: 0.03 | encoding yield [36]: 0.02 | encoding yield [37]: 0.02 | encoding yield [38]: 0.03 | encoding yield [39]: 0.05 | encoding yield [40]: 0.03 | encoding yield [41]: 0.05 | encoding yield [42]: 0.04 | encoding yield [43]: 0.02 | encoding yield [44]: 0.03 | encoding yield [45]: 0.05 | encoding yield [46]: 0.03 | encoding yield [47]: 0.02 | encoding yield [48]: 0.04 | encoding yield [49]: 0.02 | encoding yield [50]: 0.04 | encoding yield [51]: 0.01 | encoding yield [52]: 0.04

B5: engineered M44-A binder (SEQ ID NO: 42) (designed binder, not shown: small tags and cut ends; large carriers)
chain: QVSVQPNFQQDKFLGRWFVAGLASNSSWDREKVAALSGAKMVVAPATDGGLNVTRTMLRKNQCETYTGLLQPAGSLGSYSWRSPHPGSTGSESVVETDYDQYALVYGQGSKGPGEDLRAAALWSRTQTPRAELKEKFTAFSKAQGFTEDTIVFLPQTDKCMTEQ
encoding yield [1]: 0.01 | encoding yield [2]: 0.05 | encoding yield [3]: 0.01 | encoding yield [4]: 0.05 | encoding yield [5]: 0.1 | encoding yield [6]: 0.05 | encoding yield [7]: 0.07 | encoding yield [8]: 0.05 | encoding yield [9]: 0.05 | encoding yield [10]: 0.05 | encoding yield [11]: 0.04 | encoding yield [12]: 0.01 | encoding yield [13]: 0.24 | encoding yield [14]: 0.02 | encoding yield [15]: 0.02 | encoding yield [16]: 0.05 | encoding yield [17]: 0.02 | encoding yield [18]: 0.02 | encoding yield [19]: 0.04 | encoding yield [20]: 0.05 | encoding yield [21]: 0.03 | encoding yield [22]: 0.04 | encoding yield [23]: 0.05 | encoding yield [24]: 0.03 | encoding yield [25]: 0.08 | encoding yield [26]: 0 | encoding yield [27]: 0.03 | encoding yield [28]: 0.01

Source: patent publication US20230220589A1
